In the nanobody polyreactivity screen of Harvey et al. (2022):

Experiment: yeast display, Sf9 membrane polyspecificity reagent, FACS + sequencing; frameworks hold sequencing errors
Procedure, shortened: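 Nanobodies came from a synthetic yeast display library in Saccharomyces cerevisiae BJ5465, induced with galactose for 36–48 hours and stained for 1 hour at 4 °C with 10% biotinylated, detergent-solubilized Sf9 membrane reagent. Cells were enriched on streptavidin microbeads and then FACS-sorted, with low and high (top ~1%) gates set on anti-HA fluorescence for expression and streptavidin fluorescence for reagent binding. Each polyreactivity label reflects the gate a clone came from. Genes were amplified by colony PCR, sequenced by MiSeq 2 × 250 and filtered by CDR length.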

Sequence | polyreactivity (PSR sort gate)
QVQLVESGGGLVQAGGSLRLSCAASGSILYYNAMGWYRQAPGKERELVAAITSGGSTYADSVKGRFTISRDNAKNTVYLQMNSLKPEDTAVYYCAADLDWYLSDYGTSLEHDYWGQGTQVTVSS | low polyreactivity
QVQLVESGGGLVQAGGSLRLSCAASGSTFTHYDMGWYRQAPGKERELVADISRSGGRTYYADSVKGRFTISRDNAKNTVYLQMNSLKPEDTAVYYCATEFEHINGVNQGPYIDDYSWGQGSQVTVSS | low polyreactivity
QVQLVESGGGLVQAGGSLRLSCAASGRIIYSYAMGWYRQAPGKERELVATITASGGRTYYADSVKGRFTISRDNAKNTVYLQMHSLKQEDSAVYYCNARYYGSFRRRYDYWGQGTQVTVSS | high polyreactivity
QVQLVESGGGLVQAGGSLRLSCAAPGSTFVAYAMGWYRQAPGKERELVAAISSVGRTNYADSVKGRFTISRDNAKNTVYLQMNSLKPEDTAVYYCAAVYVDRRKRSYYWGQGTQVTVSS | high polyreactivity
QVQLVESGGGLVQAGGSLRLSCAASGITFQRYAMGWYRQAPGKERELVAAISTNGGTTYYADSVKGRFTISRDTAKNTVYLQMNSLKPEDTAVYYCNAESGYVYYIRYNYWGQGTQVTVSS | high polyreactivity
QVQLVESGGGLVQAGGSLRLSCAASGRTFGQYAMGWYRQAPGKEREFVAAITSSGGSTYYADSVNGRFTISRDNAKNTVYLLMNSLNPEDTAVYYCAAPISRSAGWDSYDYWGQGTQVTVSS | low polyreactivity
QVQVVESGGGLVKAAGSLGLSCSASGLNFRFYTMGWYRQAPGKERELVAAISTSGGSTYYADSVKGRFTISRDNAKNNVFLQMNSLKPEDTAVYYCIAVYAFNGYDYWGQGTQVTVSS | low polyreactivity
QGQLVESGGGLVQAGGSRRLSCAASGFIYFNAMGWSRQAPGKEREMVASISYSGGSTYYADSVKGRFTISRDNAKNTVYLQMNSLKPEDTAVYYCAKAFIEPGYKYDSWGQGTQVTVSS | high polyreactivity
QVQLVESGGGLVQAGGSLRLSCAASGFIFYRYAMGWYRQAPGKERELVAAISSSGGSTYYADSVKGRFTISRDNAKNTVYLQMNSLKPEDTAVYYCAAEPSGKRSKFYYWGQGTQVTVSS | high polyreactivity
QVHLVESGGGLVQAGGSLRLSCAASGRILGDYAMGWYRQAPGKEREFVAAIDYNGGSTNYADSVKGRFTISRDNAKNTVYLQMNSLKPEDTAVYYCAAPGFPSRNGFGYWGQGTQVTVSS | low polyreactivity
QVQLVESGGGIVQAGGSLRLSCAASGIIFTGNAMGWYIQAPGKERELVAAITSGDTTNYADSVKGRFTISRDNAKNTVYLQMNSLKPEDTAVYYCAKELQVRQAGDYWGQGTQVTVSS | low polyreactivity
QVQLVESGGGLVQAGGSLRLSCAASGSIFSSNAMGWYIQAPGKERELVAAITYSGGSTYYADSVKGRFTISRDNAKNTVYLQMNSLKPEDTAVYYCAADNGNWYDGYSYDYWGQGTQVTVSS | low polyreactivity
QVQLVESGGGLVQAGGSLRLSCAASGRTLEQYAMGWYRQAPRKERELVAAINKSGARTYYADSVKGRFTISRDNAKNSVYLQMNSQKPEDTAVYYCNTVGPSYLFDYWGQGTQVTVSS | high polyreactivity
QVQLVESGGGLVQAGGSLRLSCAASGRTFQNYAMGWYRQAPGKERELVADITSGGSTYADSVKGRFTMSRDNAKNTVYLQMNSLKPEDTAVYYCNADRTYPEPAEYYYWGQGTQVTVSS | low polyreactivity
QVQLVESGGGLVQAGGSLRLSCAASGLTFDVYAMGWYRQAPGKERELVAAISSIGGSTYYADSVKGRFTISRDNAKNTVYLQMNSLKPEDTAVYYCAAAISLYSYDYWGQGTQVTVSS | low polyreactivity
QVHLVESGGGLVQAGGILRLSCAAYGSTFKSYAMGWYRLAPGKERELVAAISSSTGRTYYADSVKGRFTISLDYAKNTVYLQMNSMKPEDTAVYYCNAVHRYERDYCGQGTQVTVSS | high polyreactivity
QVHLVESGGGLVQAGGSLRLICAASGRILTFNAMGWYRQAPGKERELVAGINWSGDSTYYADSVKGRFTISRDNAKNTVYLQINSLKPEDTAFYYCTKYSYKAHFNYWGQGTQVTVSS | low polyreactivity
QVQLVESGGGLVQAGGSLRLSCAASGSIFAPYSMGWYRQAPGKERELVAAITWSGDSTYYADSVKGRFTISRDNAKNTVYLQMNSMKPEDTSVYYCATEEVYGQGNYWGQGTQLTVSS | low polyreactivity
QVQLVESGGGLVQAGGSLRLSCGASGRTFRKYAMGWYRQAPGKERELVASITYSGGSTYYADSVKGRFTISRDNAKNTVYLQMNSLKPEDTAVYYCAARLHWNRYPQTLYDYWGLGTQVTVSS | high polyreactivity
QVQLVESGGGLVQAGGSLRLSCAASGSTFSWNTMGWYRQAPGIERELVAAINSGGSTYYADSVKGRFTISRDNAKNSVYLQMNSLKPEDTAVYYCAADWRGSYLYGYYYWGQGTQVTVSS | low polyreactivity
QVQLVESGGGLVQAGGSLRLSCAASGLTFYPYAMGWYRQAPGKESELVAAINWSGTTTYYADSVKGRFTISRDNAKNTVYLQMNSLKPADTAVYYCNADVYYEPTTGYYLWDYDYWGQGTQVTVSS | low polyreactivity
QVQLVESGGGLVQAGGSLRLSCAASGSIFLVYSMGWYRQAPGKERELVAGITSDDSTNYADSVKGRFTISRDNAKNTVYLQMNSLKPEDTAVYYCAKDSLVWYIVDLGYWGQGTQVTVSS | low polyreactivity
QVQLVESGGGLVQAGGSLRLSCAASGFIFSKNAMGWYRQAPGKERELVARITRRVGSTYYADSVKGRFTISRDNAKNTVYIQMNSLKPEDTAVYYCAVLPRVKDGTGGDYWGQGTQVTVSS | high polyreactivity
QVQLVESGGALVQAGGSIRLSCAASGRIFLHYAMGWYRQAPGKERELVAAISSSGGSTYYADSVKGRFTISRDNAKNTVYLQMKSLKPEDTAVYYCAAAYPVKTTEGYYYWGQGTHVTVSS | high polyreactivity
QDQHVESGGGLVQAGGSLRLSCAASGIIFYAYVMGWYRQAPGKERELVAAITVSGGSTYYADSVKARFTISRDNAKNTVYLQMNSLKPEDTAVYYCAADWNFYQRTFDSWGQGTQVTVSS | low polyreactivity
QVQLVESGGGLVQAGGSLRLSCAASGRIFTSYVMGWYRQAPGKERELVAAITRTGGSTYYADSVKGRFTISRDNAKNTVYLQMNSLKPEDTAVYYCNALTRRQKGGEGGGYWGQGTQVTVSS | high polyreactivity
QVQLVESGGGLVQAGGSLRLSCAASGSTFPRNAMGWYRQAPGKERELVATISTSGGSTYYADSVKGRFTISRDNAKNTVYLQMNSLKPEDTPVYYCAAVFWFRSLSGYIYDYWGQGTQVSVSS | low polyreactivity
QVQLVESGGGLVQAGGSLRLSCAASGSIFVYNVMGWYRQAPGKERELVAAISKTAGRTYYEDSVKGRFTISRDNAKNTVYLQMNSLKPEDTAVYYFAVGNKRDAYYQYSSYGYWGQGTQVTVSS | low polyreactivity
QVQLVESGGGLVQAGGSLRLSCAASGLTFVRYTMGWYRQAPGKVRELVAAITWSGGSTYYADSVKGRFTISRDNAKNTVYLQMNSLKPQDTAVYYCAARHRYWYGVTVDYWGQGTHVTVSS | high polyreactivity
QVQLVESGGGLVQAGGSLRLSCAASGRIFYSNVMGWYRQAPGKERELVAAISGRTGGTYYADSVKGRFTISRDNAKNTVYLQMNSLIPEDTAVYYCAARVIYYYGSGPYDYWGQGTQVTVSS | low polyreactivity
